One series concerns the target T1, MdBIS3 (MdBIS3.1) (Malus domestica, UniProt K9MST3).
T1 construct: cDNA in pHIS8, E. coli BL21(DE3), N-terminal His8 tag cut with thrombin; homodimer
Description: X-ray crystal structure, […] Å. The settings on record: crystals soaked with 15 mM benzoyl-CoA; CoA tunnel and active site, partial occupancy; active-site cysteine oxidized to sulfinic acid. The class given is binding.

Substrate in series [1]: CC(C)(COP(=O)(O)OP(=O)(O)OC[C@H]1O[C@@H](n2cnc3c(N)ncnc32)[C@H](O)[C@@H]1OP(=O)(O)O)[C@@H](O)C(=O)NCCC(=O)NCCSC(=O)c1ccccc1O
Description: steady-state kinetics, LC-MS product quantification. Particulars: malonyl-CoA held constant (standard 60 µM), 0.1 M potassium phosphate pH 7.0, 37°C. Type of series: biochemical, Malus domestica. The source says:
(§1) steady-state kinetics, LC-MS product quantification on MdBIS1 (MdBIS1.1)

Substrate in series [2]: CC(C)(COP(=O)(O)OP(=O)(O)OC[C@H]1O[C@@H](n2cnc3c(N)ncnc32)[C@H](O)[C@@H]1OP(=O)(O)O)[C@@H](O)C(=O)NCCC(=O)NCCSC(=O)c1ccccc1
The series is described as above. Type of series: biochemical, Malus domestica. The settings on record: malonyl-CoA held constant (standard 60 µM), 0.1 M potassium phosphate pH 7.0, 37°C.
Text: as §1

Substrate in series [3]: CC(C)(COP(=O)(O)OP(=O)(O)OC[C@H]1O[C@@H](n2cnc3c(N)ncnc32)[C@H](O)[C@@H]1OP(=O)(O)O)[C@@H](O)C(=O)NCCC(=O)NCCSC(=O)CC(=O)O
The description is as above. Type of series: biochemical, Malus domestica. Particulars: starter substrate held constant (standard 15 µM; which starter not told), 0.1 M potassium phosphate pH 7.0, 37°C.
Text: as §1

Substrate in series [4]: CC(C)(COP(=O)(O)OP(=O)(O)OC[C@H]1O[C@@H](n2cnc3c(N)ncnc32)[C@H](O)[C@@H]1OP(=O)(O)O)[C@@H](O)C(=O)NCCC(=O)NCCSC(=O)c1ccccc1O
Described as above. The class given is biochemical, Malus domestica. Particulars: malonyl-CoA held constant (standard 60 µM), 0.1 M potassium phosphate pH 7.0, 37°C. The source says: (§2) steady-state kinetics, LC-MS product quantification on MdBIS3 (MdBIS3.1)
This is another data set of the same source.

Substrate in series [5]: CC(C)(COP(=O)(O)OP(=O)(O)OC[C@H]1O[C@@H](n2cnc3c(N)ncnc32)[C@H](O)[C@@H]1OP(=O)(O)O)[C@@H](O)C(=O)NCCC(=O)NCCSC(=O)c1ccccc1
The description is as above. Type of series: biochemical, Malus domestica. The settings on record: malonyl-CoA held constant (standard 60 µM), 0.1 M potassium phosphate pH 7.0, 37°C.
Text: as §2
This is another data set of the same source.

Substrate in series [6]: CC(C)(COP(=O)(O)OP(=O)(O)OC[C@H]1O[C@@H](n2cnc3c(N)ncnc32)[C@H](O)[C@@H]1OP(=O)(O)O)[C@@H](O)C(=O)NCCC(=O)NCCSC(=O)CC(=O)O
The description is as above. Type of series: biochemical, Malus domestica. Particulars: starter substrate held constant (standard 15 µM; which starter not told), 0.1 M potassium phosphate pH 7.0, 37°C.
Text: as §2
The source holds these as a separate data set.

Substrate in series [7]: CC(C)(COP(=O)(O)OP(=O)(O)OC[C@H]1O[C@@H](n2cnc3c(N)ncnc32)[C@H](O)[C@@H]1OP(=O)(O)O)[C@@H](O)C(=O)NCCC(=O)NCCSC(=O)CC(=O)O
The series is described as above. The class given is biochemical, Malus domestica. Particulars: coumaroyl-CoA held constant (standard 60 µM), 0.1 M potassium phosphate pH 7.0, 37°C. The source says: (§3) steady-state kinetics, LC-MS product quantification on MdCHS2

Substrate in series [8]: CC(C)(COP(=O)(O)OP(=O)(O)OC[C@H]1O[C@@H](n2cnc3c(N)ncnc32)[C@H](O)[C@@H]1OP(=O)(O)O)[C@@H](O)C(=O)NCCC(=O)NCCSC(=O)/C=C/c1ccc(O)cc1
Described as above. Type of series: biochemical, Malus domestica. Particulars: malonyl-CoA held constant (standard 100 µM), 0.1 M potassium phosphate pH 7.0, 37°C.
Text: as §3

Substrate in series [9]: CC(C)(COP(=O)(O)OP(=O)(O)OC[C@H]1O[C@@H](n2cnc3c(N)ncnc32)[C@H](O)[C@@H]1OP(=O)(O)O)[C@@H](O)C(=O)NCCC(=O)NCCSC(=O)c1ccccc1
The series is described as above. Particulars: malonyl-CoA held constant (standard 80 µM), 0.1 M potassium phosphate pH 7.0, 37°C. The class given is biochemical, Hypericum androsaemum. The text has this: (§4) steady-state kinetics, LC-MS product quantification on HaBPS

Substrate in series [10]: CC(C)(COP(=O)(O)OP(=O)(O)OC[C@H]1O[C@@H](n2cnc3c(N)ncnc32)[C@H](O)[C@@H]1OP(=O)(O)O)[C@@H](O)C(=O)NCCC(=O)NCCSC(=O)CC(=O)O
The description is as above. Type of series: biochemical, Hypericum androsaemum. Particulars: starter substrate held constant (standard 20 µM), 0.1 M potassium phosphate pH 7.0, 37°C.
Text: as §4

As for `CC(C)(COP(=O)(O)OP(=O)(O)OC[C@H]1O[C@@H](n2cnc3c(N)ncnc32)[C@H](O)[C@@H]1OP(=O)(O)O)[C@@H](O)C(=O)NCCC(=O)NCCSC(=O)c1ccccc1` [Benzoyl-CoA], the “X-ray crystal structure, 1.20 Å” value on MdBIS3 (MdBIS3.1) is given as “co-crystallization of MdBIS3 with benzoyl-CoA, resulting in intact benzoyl-CoA molecules with partial occupancies”.

B1: MdBIS1 (MdBIS1.1) (Malus domestica) (protein)
chain: MAPLVKNHGEHQHAKILAIGTANPPNVYYQKDYPDFLFRVTKNEHRTDLREKFDRICEKSRTRKRYLHLTEEILKANPSIYTYGAPSLDVRQDMLNPEVPKLGQQAALKAIKEWGQPISKITHLIFCTASCVDMPGADFQLVKLLGLNPSVTRTMIYEAGCYAGATVLRLAKDFAENNEGARVLVVCAEITTVFFHGLTDTHLDILVGQALFADGASAVIVGANPEPKIERPLFEIVACRQTIIPNSEHGVVANIREMGFTYYLSGEVPKFVGGNVVDFLTKTFEKVDGKNKDWNSLFFSVHPGGPAIVDQVEEQLGLKEGKLRATRHVLSEYGNMGAPSVHFILDDMRKKSIEEGKSTTGEGLEWGVVIGIGPGLTVETAVLRSESITC
notes: cDNA in pHIS8, E. coli BL21(DE3), N-terminal His8 tag cut with thrombin
For orientation: Km means the substrate concentration at which the rate is half of its maximum. As usually defined, the kcat is the number of substrate molecules converted per active site and unit of time at saturation. One may read the kcat/Km as the turnover number divided by the Michaelis constant. As for B1, in series [1], the Km came to 1.6 ± 0.4 µM, the kcat was 0.2083 ± 0.00167 s⁻¹ and the kcat/Km came to 130000 M⁻¹ s⁻¹. In series [2], the Km was determined as 0.8 ± 0.2 µM, the kcat worked out at 0.2833 ± 0.00167 s⁻¹ and the catalytic efficiency (kcat/Km) was found to be 350000 M⁻¹ s⁻¹. In series [3], the Km turned out to be 6.8 ± 1.7 µM.

B2: MdBIS3 (MdBIS3.1) (Malus domestica) (protein)
chain: MAPLVKNEPQHAKILAIGTANPPNVYHQKDYPDFLFRVTKNEHRTDLREKFDRICEKSRTKKRYLHLTEEMLKANPNIYTYGAPSLDVRQDICNIEVPKLGQEAALKAIKEWGQPISRITHLIFCTASCVDMPGCDFQLIKLLGLDPSVTRTMIYEAGCYAGATVLRMAKDFAENNKGARVLVVCAEITTVFFHGLTDTHLDILVGQALFADGASAVIVGANPEPEIERPLFEIVACRQTILPNSEHGVVANIREMGFNYYLSGDVPKFVGGNVVDFMTKTFEKVDGKKKDWNSLFFSVHPGGPAIVDQVEEKLGLKEGKLRATRHVLSEYGNMGAPTVHFILDEMRNKSIEEGKTTTGEGLEWGVVIGIGPGLTVETAVLRSESIRC
notes: cDNA in pHIS8, E. coli BL21(DE3), N-terminal His8 tag cut with thrombin; homodimer
On to B2, for which, in series [4], the Michaelis constant (Km) worked out at 1.1 ± 0.4 µM, the kcat was 0.1 ± 0.00167 s⁻¹ and the specificity constant (kcat/Km) was found to be 90000 M⁻¹ s⁻¹. Moreover, in series [5], the Km worked out at 0.5 ± 0.1 µM, the kcat amounted to 0.135 s⁻¹ and the specificity constant (kcat/Km) worked out at 270000 M⁻¹ s⁻¹. For the same molecule, in series [6], the Km was 4.1 ± 1.9 µM.

B3: MdCHS2 (Malus domestica) (protein)
chain: MVTVEEVRKAQRAEGPATVLAIGTATPSNCVDQATYPDYYFRITNSEHKTELKEKFQRMCDKSMIKKRYMYLTEEILKENPTVCEYMAPSLDARQDMVVVEVPRLGKEAATKAIKEWGQPKSKITHLVFCTTSGVDMPGADYQLTKLLGLRPYVKRLMMYQQGCFAGGTVLRLAKDLAENNKGARVLVVCSEITAVTFRGPSDTHLDSLVGQALFGDGAAAVIIGADPLPEVEKPLFELVSAAQTILPDSDGAIDGHLREVGLTFHLLKDVPGLISKNIEKSLNEAFKPIGISDWNSLFWIAHPGGPAILDQVESKLALKPEKLEATRQVLSNYGNMSSACVLFILDEVRRKSTEKGLRTTGEGLEWGVLFGFGPGLTVETVVLHSVAA
notes: as for B2
With B3, in [7], the Km was 12.8 ± 2.7 µM. Also, in series [8], the Km stood at 17.9 ± 6.1 µM, the turnover number (kcat) was found to be 0.02 ± 0.00167 s⁻¹ and the kcat/Km amounted to 1120 M⁻¹ s⁻¹.

B4: HaBPS (Hypericum androsaemum) (protein)
chain: MAPAMEYSTQNGQGEGKKRASVLAIGTTNPEHFILQEDYPDFYFRNTNSEHMTELKEKFKRICVKSHIRKRHFYLTEEILKENQGIATYGAGSLDARQRILETEVPKLGQEAALKAIAEWGQPISKITHVVFATTSGFMMPGADYVITRLLGLNRTVRRVMLYNQGCFAGGTALRVAKDLAENNEGARVLVVCAENTAMTFHAPNESHLDVIVGQAMFSDGAAALIIGACPDVASGERAVFNILSASQTIVPGSDGAITAHFYEMGMSYFLKEDVIPLFRDNIAAVMEEAFSPLGVSDWNSLFYSIHPGGRGIIDGVAGNLGIKDENLVATRHVLGEYGNMGSACVMFILDELRKSSKVNGKPTTGDGKEFGCLIGLGPGLTVEAVVLQSVPILQ
notes: codon-optimized synthetic gene in pHIS8, E. coli BL21(DE3), N-terminal His8 tag cut with thrombin; homodimer
Consider B4, for which, in series [9], the Km was found to be 1.3 ± 0.5 µM, the turnover number (kcat) worked out at 0.0183 s⁻¹ and the specificity constant (kcat/Km) amounted to 14000 M⁻¹ s⁻¹. Besides, in series [10], the Km stood at 2.8 ± 0.7 µM.
